According to publication doi:10.1101/2024.04.24.590897 (bioRxiv, 2024):

Target: Flag-LEDGF/p75 (UniProt O75475 1-530)
Test: AlphaScreen or HTRF

binding result: binds
B1: GST-LEDGF/p52 (natural protein)
chain: not shown
